Data on ten molecules can be found in article PMC8443706, “Functionally diverse heteromeric traps for ligands of the transforming growth factor-β superfamily” (Scientific Reports, 2021).

B4: BMP6 (ligand, human, UniProt P22004 375-513, looked up)
chain: SASSRRRQQSRNRSTQSQDVARVSSASDYNSSELKTACRKHELYVSFQDLGWQDWIIAPKGYAANYCDGECSFPLNAHMNATNHAIVQTLVHLMNPEYVPKPCCAPTKLNAISVLYFDDNSNVILKKYRNMVVRACGCH
notes: source: bought: R&D Systems

What all share (conditions): both partners purified
Experiment [1] addresses T1, IIB-Fc:ALK4-Fc heterodimer (human ActRIIB ECD-Fc paired with human ALK4 ECD-Fc) (human, UniProt Q13705-1 19-134; P36896-1 24-126).
T1 construct: activin receptor type IIB (ActRIIB) extracellular domain, human, aa 19-134 of NP_001097.2; copies: 1 + 1
Briefly: SPR; Biacore 8K, 37 °C; Fc-fusion receptor dimers captured by anti-human Fc antibody on a CM5 chip (100-150 RU); ligands injected in two-fold dilution series (300 s association, 600 s dissociation); HBS-EP+ supplemented with 350 mM NaCl and 0.5 mg/mL BSA; 1:1 Langmuir model with a term for mass transport. (SPR reads the build-up and loss of mass on a sensor chip optically.)

In experiment [2] the target is T2, IIB-Fc:IIB-Fc homodimer (human ActRIIB ECD fused to human IgG1 Fc) (human, UniProt Q13705-1 19-134).
T2 construct: activin receptor type IIB (ActRIIB) extracellular domain, human, aa 19-134 of NP_001097.2; Chains linked by disulfide bonds between the Fc domains; a form with murine IgG2a Fc was used only in mice; also called ActRIIB-Fc homodimer; ActRIIB-Fc; not shown: Fc (human IgG1), C-terminal, kept
Described as above.

Experiment [3] addresses T3, IIB-Fc:ALK3-Fc heterodimer (human ActRIIB ECD-Fc paired with human ALK3 ECD-Fc) (human, UniProt Q13705-1 19-134; P36894 24-152).
T3 construct: activin receptor type IIB (ActRIIB) extracellular domain, human, aa 19-134 of NP_001097.2; copies: 1 + 1
Briefly: SPR; same experiment as a1 (Biacore 8K, 37 °C, receptor dimers captured by anti-human Fc, HBS-EP+ with 350 mM NaCl added and 0.5 mg/mL BSA) but fitted with a bivalent analyte model (bold cells of Table 1); the first binding step is the one considered.

The target in experiment [4] is T4, IIB-Fc:ALK7-Fc heterodimer (human ActRIIB ECD-Fc paired with human ALK7 ECD-Fc) (human, UniProt Q13705-1 19-134; Q8NER5-1 25-113).
T4 construct: activin receptor type IIB (ActRIIB) extracellular domain, human, aa 19-134 of NP_001097.2; activin receptor-like kinase 7 (ALK7) extracellular domain, human, aa 25-113 of NP_660302.2; copies: 1 + 1
The experiment is described as above.

Experiment [5] has as its target T3, IIB-Fc:ALK3-Fc heterodimer (human …). Briefly: SPR; Biacore 8K, 37 °C; Fc-fusion receptor dimers captured by anti-human Fc antibody on a CM5 chip (100-150 RU); ligands injected in two-fold dilution series (300 s association, 600 s dissociation); HBS-EP+ supplemented with 350 mM NaCl and 0.5 mg/mL BSA; 1:1 Langmuir model with a term for mass transport.
Experiment [6] concerns the target T4, IIB-Fc:ALK7-Fc heterodimer (human …). Described as above.
For experiment [7], the target named is T1, IIB-Fc:ALK4-Fc heterodimer (human …). Nature of the experiment: SPR; same experiment as a1 (Biacore 8K, 37 °C, receptor dimers captured by anti-human Fc, HBS-EP+ with 350 mM NaCl added and 0.5 mg/mL BSA) but fitted with a bivalent analyte model (bold cells of Table 1); the first binding step is the one considered.
The target in the experiment “BMP6” is B4. Briefly: SPR; Biacore 8K, 37 °C; Fc-fusion receptor dimers captured by anti-human Fc antibody on a CM5 chip (100-150 RU); ligands injected in two-fold dilution series (300 s association, 600 s dissociation); HBS-EP+ supplemented with 350 mM NaCl and 0.5 mg/mL BSA; 1:1 Langmuir model with a term for mass transport.

T4 sequence (Q13705 19-134, chain 1 of 2): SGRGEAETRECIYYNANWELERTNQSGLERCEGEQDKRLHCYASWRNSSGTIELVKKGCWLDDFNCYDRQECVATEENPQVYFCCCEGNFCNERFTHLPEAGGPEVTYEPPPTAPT
T4 sequence (Q8NER5 25-113, chain 2 of 2): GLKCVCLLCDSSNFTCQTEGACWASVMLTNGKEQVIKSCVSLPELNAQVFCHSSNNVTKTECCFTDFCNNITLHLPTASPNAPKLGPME
T1 sequence (Q13705 19-134, chain 1 of 2): as the sequence (Q13705 19-134, chain 1 of 2) above
T1 sequence (P36896 24-126, chain 2 of 2): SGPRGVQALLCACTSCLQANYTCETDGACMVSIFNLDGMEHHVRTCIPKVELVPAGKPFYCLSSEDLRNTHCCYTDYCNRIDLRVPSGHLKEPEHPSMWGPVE
T2 sequence (Q13705 19-134): as the sequence (Q13705 19-134, chain 1 of 2) above

B1: activin A (ligand, human, UniProt P08476 311-426, looked up)
chain: GLECDGKVNICCKKQFFVSFKDIGWNDWIIAPSGYHANYCEGECPSHIAGTSGSSLSFHSTVINHYRMRGHSPFANLKSCCVPTKLRPMSMLYYDDGQNIIKKDIQNMIVEECGCS
notes: source: generated in house
Take B1: the Kd is 0.0184 nM in experiment [1], 0.0109 nM in experiment [2], 0.164 nM in experiment [3] and 0.41 nM in experiment [4]. Also, the koff in experiment [1] turned out to be 0.000139 s⁻¹; in experiment [2] it was 8.45e-05 s⁻¹; in experiment [3], 0.00733 s⁻¹; in experiment [4], 0.00815 s⁻¹. Besides, the kon in experiment [1] worked out at 7.4e+06 M⁻¹ s⁻¹; in experiment [2] it was 7.8e+06 M⁻¹ s⁻¹; in experiment [3], 4.47e+07 M⁻¹ s⁻¹; in experiment [4] it was 2e+07 M⁻¹ s⁻¹.

B2: activin B (ligand, human, UniProt P09529 293-407, looked up)
chain: GLECDGRTNLCCRQQFFIDFRLIGWNDWIIAPTGYYGNYCEGSCPAYLAGVPGSASSFHTAVVNQYRMRGLNPGTVNSCCIPTKLSTMSMLYFDDEYNIVKRDVPNMIVEECGCA
notes: source: generated in house
As to B2, the Kd in experiment [5] came to 0.0696 nM; in experiment [1], 0.0153 nM; in experiment [2], 0.0038 nM; in experiment [6] it was 0.0153 nM. For the same molecule, the koff turned out to be 0.000335 s⁻¹ in experiment [5], 8.07e-05 s⁻¹ in experiment [1], 2.19e-05 s⁻¹ in experiment [2] and 0.000114 s⁻¹ in experiment [6]. Further, the kon in experiment [5] was 4.8e+06 M⁻¹ s⁻¹; in experiment [1] it was 5.3e+06 M⁻¹ s⁻¹; in experiment [2], 5.7e+06 M⁻¹ s⁻¹; in experiment [6], 7.4e+06 M⁻¹ s⁻¹.

B3: BMP4 (ligand, human, UniProt P12644 293-408, looked up)
chain: SPKHHSQRARKKNKNCRRHSLYVDFSDVGWNDWIVAPPGYQAFYCHGDCPFPLADHLNSTNHAIVQTLVNSVNSSIPKACCVPTELSAISMLYLDEYDKVVLKNYQEMVVEGCGCR
notes: source: bought: R&D Systems
With B3, the Kd in experiment [5] stood at 0.0041 nM; in experiment [2], 5.43 nM.
On to B4, for which the figures for the Kd in experiment [5], in experiment [1] and in experiment [6] were 0.046 nM, 0.758 nM and 0.715 nM, respectively. For the same molecule, the koff in experiment [5] was 0.000214 s⁻¹; in experiment [1] it was 0.00573 s⁻¹; in experiment [6], 0.00424 s⁻¹. Also, the kon in experiment [5] came out at 4.6e+06 M⁻¹ s⁻¹; in experiment [1], 7.6e+06 M⁻¹ s⁻¹; in experiment [6], 5.9e+06 M⁻¹ s⁻¹.

B5: GDF3 (ligand, human, UniProt Q9NR23 251-364, looked up)
chain: AAIPVPKLSCKNLCHRHQLFINFRDLGWHKWIIAPKGFMANYCHGECPFSLTISLNSSNYAFMQALMHAVDPEIPQAVCIPTKLSPISMLYQDNNDNVILRHYEDMVVDECGCG
notes: source: bought: R&D Systems
As to B5, the Kd in experiment [2] is 0.64 nM; in experiment [3], more than 10 nM; in experiment [7], more than 10 nM; in experiment [4], more than 10 nM. In addition, the koff in experiment [2] is 0.00188 s⁻¹; in experiment [3], more than 0.01 s⁻¹; in experiment [7], more than 0.01 s⁻¹; in experiment [4] it was more than 0.01 s⁻¹. The kon amounted to 2.9e+06 M⁻¹ s⁻¹ in experiment [2], 900000 M⁻¹ s⁻¹ in experiment [3], 1.1e+06 M⁻¹ s⁻¹ in experiment [7] and 1.1e+06 M⁻¹ s⁻¹ in experiment [4].

B6: BMP9 (ligand, human, UniProt Q9UK05 320-429, looked up)
chain: SAGAGSHCQKTSLRVNFEDIGWDSWIIAPKEYEAYECKGGCFFPLADDVTPTKHAIVQTLVHLKFPTKVGKACCVPTKLSPISVLYKDDMGVPTLKYHYEGMSVAECGCR
notes: source: generated in house
Regarding B6, the Kd in experiment [2] worked out at 0.0933 nM; in experiment [3], 1.76 nM; in experiment [7], 1.36 nM; in experiment [4], 2.3 nM. For the same molecule, the koff in experiment [2] is 0.0011 s⁻¹; in experiment [3] it was more than 0.01 s⁻¹; in experiment [7], more than 0.01 s⁻¹; in experiment [4] it was more than 0.01 s⁻¹. The kon was found to be 1.24e+07 M⁻¹ s⁻¹ in experiment [2], 9.7e+06 M⁻¹ s⁻¹ in experiment [3], 8.9e+06 M⁻¹ s⁻¹ in experiment [7] and 7.1e+06 M⁻¹ s⁻¹ in experiment [4].

B7: BMP10 (ligand, human, UniProt O95393 317-424, looked up)
chain: NAKGNYCKRTPLYIDFKEIGWDSWIIAPPGYEAYECRGVCNYPLAEHLTPTKHAIIQALVHLKNSQKASKACCVPTKLEPISILYLDKGVVTYKFKYEGMAVSECGCR
notes: source: bought: R&D Systems
For the molecule B7, the Kd in experiment [5] came out at 0.0335 nM; in experiment [1], 0.067 nM; in experiment [2], 0.0065 nM; in experiment [6], 0.0706 nM. In addition, the koff is 0.000719 s⁻¹ in experiment [5], 0.0028 s⁻¹ in experiment [1], 0.000121 s⁻¹ in experiment [2] and 0.00314 s⁻¹ in experiment [6]. Besides, the kon in experiment [5] was determined as 2.15e+07 M⁻¹ s⁻¹; in experiment [1], 4.18e+07 M⁻¹ s⁻¹; in experiment [2] it was 1.86e+07 M⁻¹ s⁻¹; in experiment [6] it was 4.45e+07 M⁻¹ s⁻¹.

B8: GDF11 (ligand, human, UniProt O95390 299-407, looked up)
chain: NLGLDCDEHSSESRCCRYPLTVDFEAFGWDWIIAPKRYKANYCSGQCEYMFMQKYPHTHLVQQANPRGSAGPCCTPTKMSPINMLYFNDKQQIIYGKIPGMVVDRCGCS
notes: source: generated in house
For the molecule B8, the Kd in experiment [5] turned out to be 0.0485 nM; in experiment [1], 0.0108 nM; in experiment [2], 0.0039 nM; in experiment [6] it was 0.0474 nM. Moreover, the koff worked out at 0.000641 s⁻¹ in experiment [5], 0.000164 s⁻¹ in experiment [1], 7.56e-05 s⁻¹ in experiment [2] and 0.000642 s⁻¹ in experiment [6]. Besides, the kon stood at 1.32e+07 M⁻¹ s⁻¹ in experiment [5], 1.52e+07 M⁻¹ s⁻¹ in experiment [1], 1.94e+07 M⁻¹ s⁻¹ in experiment [2] and 1.35e+07 M⁻¹ s⁻¹ in experiment [6].

B9: ALK3-Fc:ALK3-Fc homodimer (human ALK3 ECD fused to human IgG1 Fc) (Fc fusion, UniProt P36894 24-152, looked up)
chain: QNLDSMLHGTGMKSDSDQKKSENGVTLAPEDTLPFLKCYCSGHCPDDAINNTCITNGHCFAIIEEDDQGETTLASGCMKYEGSDFQCKDSPKAQLRRTIECCRTNLCNQYLQPTLPPVVIGPFFDGSIR
notes: not shown: Fc (human IgG1), C-terminal, kept
On to B9, for which, in the experiment with BMP6, the Kd was 9.03 nM, the koff stood at 0.00569 s⁻¹ and the kon stood at 600000 M⁻¹ s⁻¹.

B10: BMP7 (ligand, human, UniProt P18075 293-431, looked up)
chain: STGSKQRSQNRSKTPKNQEALRMANVAENSSSDQRQACKKHELYVSFRDLGWQDWIIAPEGYAAYYCEGECAFPLNSYMNATNHAIVQTLVHFINPETVPKPCCAPTQLNAISVLYFDDSSNVILKKYRNMVVRACGCH
notes: source: bought: R&D Systems
In the case of B10, the Kd was 0.165 nM in experiment [5], more than 10 nM in experiment [7] and more than 10 nM in experiment [4]. Further, the koff was 0.00197 s⁻¹ in experiment [5], more than 0.01 s⁻¹ in experiment [7] and more than 0.01 s⁻¹ in experiment [4]. Further, the kon in experiment [5] was found to be 1.19e+07 M⁻¹ s⁻¹; in experiment [7] it was 800000 M⁻¹ s⁻¹; in experiment [4], 700000 M⁻¹ s⁻¹.

For orientation: koff means the first-order rate constant of dissociation. A high value points to a short-lived complex. In general, kon refers to the second-order rate constant of association.
